According to article PMC7954794, “Protein context shapes the specificity of SH3 domain-mediated interactions in vivo” (Nature Communications, 2021):

System: growth of yeast strains under 51 stress conditions
Test: Growth assays in 51 stress conditions (Fig. 1E-F, S2D, S5B)
Type: cell-based, Saccharomyces cerevisiae
Set-up: key to Growth (Fig. S2D) / growth of ABP1 SH3-swapped strains in stress condition: log2 colony size, average of median per strain (growth score)
Details: ABP1 SH3-swapped strains
Outline: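 Colony sizes at 74 h on 51 stress media (37 °C) were log2 transformed, corrected for plate effects, and averaged across two plates as per-plate medians (growth score). Strains arrayed in 12 replicates with WT border, grown first on YPD for two days at 30 °C.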

B1: BOI1 (protein, UniProt P38041 1-980, looked up)
BEM1-interacting protein 1: MSLEGNTLGKGAKSFPLYIAVNQYSKRMEDELNMKPGDKIKVITDDGEYNDGWYYGRNLRTKEEGLYPAVFTKRIAIEKPENLHKSPTQESGNSGVKYGNLNDSASNIGKVSSHQQENRYTSLKSTMSDIDKALEELRSGSVEQEVSKSPTRVPEVSTPQLQDEQTLIQEKTRNEENTTHDSLFSSTADLNLSSESLKNISKSNISTKSLEPSSESVRQLDLKMAKSWSPEEVTDYFSLVGFDQSTCNKFKEHQVSGKILLELELEHLKELEINSFGIRFQIFKEIRNIKSAIDSSSNKLDADYSTFAFENQAAQLMPAATVNRDEIQQQISSKCNKLSSESSDRKSSSVTTELQRPSSVVVNPNFKLHDPAEQILDMTEVPNLFADKDIFESPGRAPKPPSYPSPVQPPQSPSFNNRYTNNNARFPPQTTYPPKNKNPTVYSNGLIPNSSTSSDNSTGKFKFPAMNGHDSNSRKTTLTSATIPSINTVNTDESLPAISNISSNATSHHPNRNSVVYNNHKRTESGSSFVDLFNRISMLSPVKSSFDEEETKQPSKASRAVFDSARRKSSYGHSRDASLSEMKKHRRNSSILSFFSSKSQSNPTSPTKQTFTIDPAKMTSHSRSQSNSYSHARSQSYSHSRKHSLVTSPLKTSLSPINSKSNIALAHSETPTSSNNKEAVSQPSEGKHKHKHKHKSKHKHKNSSSKDGSSEEKSKKKLFSSTKESFVGSKEFKRSPSELTQKSTKSILPRSNAKKQQTSAFTEGIRSITAKESMQTADCSGWMSKKGTGAMGTWKQRFFTLHGTRLSYFTNTNDEKERGLIDITAHRVLPASDDDRLISLYAASLGKGKYCFKLVPPQPGSKKGLTFTEPRVHYFAVENKSEMKAWLSAIIKATIDIDTSVPVISSYATPTIPLSKAQTLLEEARLQTQLRDAEEEEGRDQFGWDDTQNKRNSNYPIEQDQFETSDYLESSAFEYPGGRL
- Growth (Fig. S2D) (Bathophenanthroline.0.1uM): 10.8558
- Growth (Fig. S2D) (Bathophenanthroline.10uM): 10.6819
- Growth (Fig. S2D) (Bathophenanthroline.1uM): 10.8124
- Growth (Fig. S2D) (CaCl2.100mM): 10.8898
- Growth (Fig. S2D) (CaCl2.250mM): 10.7569
- Growth (Fig. S2D) (CaCl2.500mM): 10.2369
- Growth (Fig. S2D) (Caffein.10mM): 9.961
- Growth (Fig. S2D) (Caffein.2mM): 10.9473
- Growth (Fig. S2D) (CdCl2.100uM): 9.222
- Growth (Fig. S2D) (CdCl2.10uM): 10.8438
- Growth (Fig. S2D) (CdCl2.50uM): 9.731
- Growth (Fig. S2D) (CuSO4.1mM): 10.511
- Growth (Fig. S2D) (CuSO4.5mM): 7.921
- Growth (Fig. S2D) (Cycloheximide.0.05.uM): 11.026
- Growth (Fig. S2D) (Cycloheximide.0.2.uM): 10.6068
- Growth (Fig. S2D) (Cycloheximide.0.5.uM): 10.1487
- Growth (Fig. S2D) (DMSO.2.): 10.9996
- Growth (Fig. S2D) (DMSO.6.): 9.7528
- Growth (Fig. S2D) (DMSO.8.): 9.017
- Growth (Fig. S2D) (Ethanol.2.): 10.7382
- Growth (Fig. S2D) (Ethanol.6.): 10.327
- Growth (Fig. S2D) (Ethanol.8.): 10.13
- Growth (Fig. S2D) (Galactose.2.): 10.7623
- Growth (Fig. S2D) (Glycerol.2.): 9.776
- Growth (Fig. S2D) (Hydroxyurea.25mM): 10.8154
- Growth (Fig. S2D) (Hygromycin.190uM): 11.0114
- Growth (Fig. S2D) (Hygromycin.19uM): 10.9627
- Growth (Fig. S2D) (Hygromycin.95uM): 10.9456
- Growth (Fig. S2D) (MMS.0.004.): 11.0063
- Growth (Fig. S2D) (MMS.0.02.): 10.7015
- Growth (Fig. S2D) (MMS.0.04.): 10.0905
- Growth (Fig. S2D) (Menadione.100uM): 10.612
- Growth (Fig. S2D) (Menadione.200uM): 10.4246
- Growth (Fig. S2D) (Menadione.50uM): 10.8341
- Growth (Fig. S2D) (NaCl.0.25M): 10.7827
- Growth (Fig. S2D) (NaCl.1M): 9.573
- Growth (Fig. S2D) (Nitroquinoline.10uM): 10.6267
- Growth (Fig. S2D) (Nitroquinoline.50uM): 10.6407
- Growth (Fig. S2D) (Nystatin.0.01uM): 11.0406
- Growth (Fig. S2D) (Nystatin.0.1uM): 11.0134
- Growth (Fig. S2D) (Raffinose.2.): 11.0354
- Growth (Fig. S2D) (Rapamycin.10nM): 9.9199
- Growth (Fig. S2D) (Rapamycin.50nM): 9.475
- Growth (Fig. S2D) (SC.pH3): 10.3897
- Growth (Fig. S2D) (SC.pH6): 10.9841
- Growth (Fig. S2D) (SDS.0.01.): 10.9238
- Growth (Fig. S2D) (SDS.0.02.): 11.0048
- Growth (Fig. S2D) (SDS.0.05.): 10.8898
- Growth (Fig. S2D) (Sorbitol.10mM): 10.9854
- Growth (Fig. S2D) (Sorbitol.1mM): 11.0069
- Growth (Fig. S2D) (Sorbitol.5mM): 10.9417
